Values quoted from earlier work in PMC4023866.

Biological target: GAPDH (Homo sapiens) (UniProt P04406)

Question: Which Kd does the source give for NleB (from UniProt B7UI21) here?
Answer: 36 µM
